Measurements: US20150353951A1, “SYNTHETIC GLYPHOSATE-RESISTANT GENE AND USE THEREOF” (priority 2012, published 2015)
“And” between values parts separate entries of the source, which are not always exact repeats. Equal values may be shown once. “Also recorded” adds a separate entry of the source.

B1: mG2-aroA: codons optimized glyphosate-resistant gene, SEQ ID NO. 2, encoding G2-aroA protein; tested as T6 transgenic maize (nucleic acid)
DNA: ATGGCGTGCCTCCCTGACGATTCTGGTCCGCATGTCGGACACTCCACTCCACCTCGCCTGGACCAGGAGCCCTGTACCTTGTCGTCCCAGAAGACGGTTACGGTGACGCCACCCAACTTCCCGTTGACTGGGAAGGTCGCTCCACCTGGCTCCAAGTCTATCACCAACCGTGCACTGTTGCTGGCTGCGTTGGCCAAAGGGACCAGTCGGTTGAGCGGTGCGCTCAAGTCGGATGACACTCGCCACATGTCGGTGGCTCTGAGGCAGATGGGTGTCACGATCGACGAACCGGATGACACGACCTTCGTGGTCACGAGCCAAGGCAGCCTCCAGCTGCCAGCCCAACCGTTGTTCCTCGGCAATGCTGGCACCGCTATGCGCTTCCTCACGGCTGCGGTGGCCACCGTCCAAGGCACGGTCGTTCTGGATGGCGATGAGTACATGCAGAAGCGTCCCATCGGACCCTTGCTGGCGACGCTTGGACAGAACGGCATCCAAGTGGATTCTCCCACCGGTTGCCCACCCGTCACCGTGCACGGCATGGGCAAGGTCCAAGCGAAGCGGTTCGAGATCGACGGTGGGCTCTCCTCCCAGTACGTCTCAGCCCTGCTCATGCTCGCTGCGTGTGGCGAGGCACCGATCGAGGTTGCGCTCACAGGCAAGGACATCGGTGCCAGAGGGTACGTGGACCTGACCCTCGACTGCATGAGAGCCTTTGGAGCACAGGTTGACGCAGTGGACGACACGACCTGGAGGGTCGCTCCCACAGGGTACACCGCTCATGACTATCTCATCGAACCCGACGCCAGCGCTGCGACGTACTTGTGGGCAGCCGAGGTCCTGACCGGTGGCAGGATTGATATTGGCGTTGCTGCGCAGGACTTCACCCAACCGGACGCCAAGGCTCAAGCCGTGATTGCGCAGTTCCCTAACATGCAAGCCACCGTGGTTGGCTCCCAGATGCAGGACGCGATCCCGACCCTGGCTGTCCTCGCAGCCTTCAACAATACTCCCGTGCGCTTCACTGAGCTTGCCAACCTTAGGGTCAAGGAGTGCGATCGCGTGCAAGCCCTGCACGATGGGCTCAACGAGATCAGGCCAGGCCTCGCCACCATCGAGGGAGACGACCTGCTCGTGGCCAGCGACCCAGCGCTTGCAGGGACAGCCTGCACAGCCCTGATCGACACCCACGCTGACCATCGCATCGCGATGTGCTTTGCCCTGGCTGGCCTTAAGGTCTCAGGCATTCGCATTCAGGACCCTGACTGCGTGGCCAAGACCTACCCTGACTACTGGAAGGCTCTTGCCAGCCTTGGCGTTCACCTCAACGACTGATGA
B2: G2-aroA: initial prokaryote glyphosate-resistant gene, SEQ ID NO. 1; tested as T6 transgenic maize (nucleic acid)
DNA: ATGGCGTGTTTGCCTGATGATTCGGGTCCGCATGTCGGCCACTCCACGCCACCTCGCCTTGACCAGGAGCCTTGTACCTTGAGTTCGCAGAAAACCGTGACCGTTACACCGCCCAACTTCCCCCTCACTGGCAAGGTCGCGCCCCCCGGCTCCAAATCCATTACCAACCGTGCGCTGTTGCTGGCGGCATTGGCCAAGGGCACCAGCCGTTTGAGCGGTGCGCTCAAAAGCGATGACACGCGCCACATGTCGGTCGCCCTGCGGCAGATGGGCGTCACCATCGACGAGCCGGACGACACCACCTTTGTGGTCACCAGCCAAGGCTCGCTGCAATTGCCGGCCCAGCCGTTGTTCCTCGGCAACGCTGGCACCGCCATGCGCTTTCTCACGGCTGCCGTGGCCACCGTGCAAGGCACCGTGGTACTGGACGGCGACGAGTACATGCAAAAACGCCCGATTGGCCCGCTGCTGGCTACCCTGGGCCAGAACGGCATCCAGGTCGACAGCCCCACCGGTTGCCCACCGGTCACCGTGCACGGCATGGGCAAGGTCCAGGCCAAGCGTTTCGAGATTGATGGTGGTTTGTCCAGCCAGTACGTATCGGCCCTGCTGATGCTCGCGGCGTGCGGCGAAGCGCCGATTGAAGTGGCGCTGACCGGCAAGGATATCGGTGCCCGTGGCTACGTGGACCTGACCCTCGACTGCATGCGTGCCTTCGGGGCCCAGGTGGACGCCGTGGACGACACCACCTGGCGCGTCGCCCCCACCGGCTATACCGCCCATGATTACCTGATCGAACCCGATGCGTCCGCCGCCACGTATTTGTGGGCCGCAGAAGTGCTGACCGGTGGGCGTATCGACATCGGCGTAGCCGCGCAGGACTTCACCCAGCCCGACGCCAAGGCCCAGGCCGTGATTGCGCAGTTCCCGAACATGCAAGCCACGGTGGTAGGCTCGCAAATGCAGGATGCGATCCCGACCCTGGCGGTGCTCGCCGCGTTCAACAACACCCCGGTGCGTTTCACTGAACTGGCGAACCTGCGCGTCAAGGAATGTGACCGCGTGCAGGCGCTGCACGATGGCCTCAACGAAATTCGCCCGGGCCTGGCGACCATCGAGGGCGATGACCTGCTGGTCGCCAGCGACCCGGCCCTGGCAGGCACCGCCTGCACCGCACTGATCGACACCCACGCCGACCATCGCATCGCCATGTGCTTTGCCCTGGCCGGGCTTAAAGTCTCGGGCATTCGCATTCAAGACCCGGACTGCGTGGCCAAGACCTACCCTGACTACTGGAAAGCCCTGGCCAGCCTGGGCGTTCACCTAAACGACTGA

Assays:
[1] = test system: T6 generation transgenic maize plants; test: Detection of herbicide (Roundup/glyphosate) resistance of transgenic maize plants in field; assay type: in vivo; conditions: for phytotoxicity after Roundup treatment: 800 ml/mu Roundup (41% glyphosate) at 5-6 leaf age; for phytotoxicity response at late stage of plants growth: 800 ml/mu Roundup at 5-6 leaf age
Method: 1. the experimental materials: T6 generation transgenic maize plants, including plants transformed with mG2-aroA gene, plants transformed with G2-aroA gene, and plants transformed with pS3300-UG0 blank vector. At the same time, the non-transgenic maize plants were used as a control.
2. experiment design: 5M of row length, 3 row plots, 3 times of repeat, density: 60×35 cm
3. experiment treatment: applying Roundup (containing 41% of glyphosate, recommbinated applying amount in field is 150-250 ml/mu) in an amount of 800 ml/mu.
4. the experiment treatment timing: 5-6 leaf age. The experimental result was observed 7 days later.

G2-aroA protein = test: Double-antibody sandwich ELISA detection of G2-aroA protein expression in transgenic maize leaves; assay type: in vivo; conditions: for G2-aroA protein concentration: T6 generation transgenic maize, five-leaf stage, leaf fresh weight, single plants 1-4; for expression amount of G2-aroA protein in per gram (fresh weight) of leaf plate: transgenic maize
Method: The sample extracting solution: 25 mM of Tris-Cl (pH8.0), 10 mM of KCl, 20 mM of MgCl2.6H2O, 1 mM of DTT, 1 mM of PMSF (added before using).
Taking T6 generation transgenic maize plants (including plants transformed with the mG2-aroA gene and plants transformed with G2-aroA gene) at the same growth state (five-leaf stage), and taking about 1 g (fresh weight) of each function leaf (top-three leaves) plates, then grinding in liquid nitrogen. Transferring into 10 ml of centrifugal tube, into which 3 ml of sample extracting solution was added, and shaking strongly. Then centrifugalizing for 1 h at 4° C. The supernatant was taken as a sample to be detected and stand by service. Since the transformed genes are different, there are two samples to be detected, that is, a sample derived from mG2-aroA transgenic plants (sample to be detected is mG2-aroA) and a sample derived from G2-aroA transgenic plants (sample to be detected is G2-aroA). At the same time, the T6 generation maize plants transformed with pS3300-UG0 blank vector and the non-transgenic maize plants were used as controls.
The weight weighting when the leaf plates were ground in liquid nitrogen into powder samples and added into centrifugal tube containing the extracting solution subtracts that weighting before adding sample into centrifugal tube containing the extracting solution to obtain the fresh weight described above.
(1) Coating: the primary antibody (rabbit antibody) with concentration of 1.5 mg/ml (preparation method, see last part of this specification) against G2-aroA protein was diluted in coating buffer. And then after dilution added into ELIAS plate with a volume ratio of 1:1000 between polyclonal antibody against G2-aroA protein and coating buffer, 100 μL per well, and coating overnight in wet box at 4° C. […]
In another aspect, the sample to be detected prepared in step 1 was diluted with sample buffer in a ratio of 1:5, and then 100 μL of diluted sample was added to each well. […]
(9) Measurement: the OD value was measured at 405 nm.
(10) Plotting the standard curve: the standard solution concentration of G2-aroA protein of various of concentration (ng/mL) was plotted on X axis, and the OD value of G2-aroA protein standard measured in step (9) was plotted on Y axis, then the standard curve was plotted by EXCEL.
(11) The OD value of sample to be detected measured in step (9) was used in standard curve equation obtained in step (10) to calculate the content of G2-aroA protein in sample to be detected.
The content of G2-aroA protein in fresh weight=the content of G2-aroA protein of sample to be detected×the volume of sample to be detected/fresh weight of the sample, unit: μg/g. […]

Row | Molecule | phytotoxicity after Roundup treatment [1] | phytotoxicity response at late stage of plants growth [1] | G2-aroA protein concentration (G2-aroA protein) | expression amount of G2-aroA protein in per gram (fresh weight) of leaf plate (G2-aroA protein)
1 | B1 | phytotoxicity was not obvious, they grew normally | no phytotoxicity response | 3.304 µg/g and 2.977 µg/g and 4.321 µg/g and 4.339 µg/g | up to 15.057 μg
2 | B2 | very serious phytotoxicity, and all plants showed yellowing, abnormalities; also recorded: phytotoxicity was very serious, plants all show yellowing, abnormalities | most of plants showed that the tassels did not differentiate, and ears did not silk or plants were short | 10.671 µg/g and 20.227 µg/g and 14.237 µg/g and 15.096 µg/g | 3.735 µg
